# Experimental data from US7888089B2, “eNOS mutations useful for gene therapy and therapeutic screening” (Yale University, priority 1999, dated 2011).
# “And” between values parts separate entries of the source, which are not always exact repeats. Equal entries are not always repeated. Where two headings read alike, the source gives them in different places.
# B1: S1179D: bovine eNOS with serine 1179 mutated to aspartic acid (protein)
# chain: GNLKSVGQEPGPPCGLGLGLGLGLCGKQGPASPAPEPSRAPAPATPHAPDHSPAPNSPTLTRPPEGPKFPRVKNWELGSITYDTLCAQSQQDGPCTPRCCLGSLVLPRKLQTRPSPGPPPAEQLLSQARDFINQYYSSIKRSGSQAHEERLQEVEAEVASTGTYHLRESELVFGAKQAWRNAPRCVGRIQWGKLQVFDARDCSSAQEMFTYICNHIKYATNRGNLRSAITVFPQRAPGRGDFRIWNSQLVRYAGYRQQDGSVRGDPANVEITELCIQHGWTPGNGRFDVLPLLLQAPDEAPELFVLPPELVLEVPLEHPTLEWFAALGLRWYALPAVSNMLLEIGGLEFSAAPFSGWYMSTEIGTRNLCDPHRYNILEDVAVCMDLDTRTTSSLWKDKAAVEINLAVLHSFQLAKVTIVDHHAATVSFMKHLDNEQKARGGCPADWAWIVPPISGSLTPVFHQEMVNYILSPAFRYQPDPWKGSATKGAGITRKKTFKEVANAVKISASLMGTLMAKRVKATILYASETGRAQSYAQQLGRLFRKAFDPRVLCMDEYDVVSLEHEALVLVVTSTFGNGDPPENGESFAAALMEMSGPYNSSPRPEQHKSYKIRFNSVSCSDPLVSSWRRKRKESSNTDSAGALGTLRFCVFGLGSRAYPHFCAFARAVDTRLEELGGERLLQLGQGDELCGQEEAFRGWAKAAFQASCETFCVGEEAKAAAQDIFSPKRSWKRQRYRLSTQAEGLQLLPGLIHVHRRKMFQATVLSVENLQSSKSTRATILVRLDTAGQEGLQYQPGDHIGICPPNRPGLVEALLSRVEDPPPPTESVAVEQLEKGSPGGPPPSWVRDPRLPPCTLRQALTFFLDITSPPSPRLLRLLSTLAEEPSEQQELETLSQDPRRYEEWKWFRCPTLLEVLEQFPSVALPAPLLLTQLPLLQPRYYSVSSAPNAHPGEVHLTVAVLAYRTQDGLGPLHYGVCSTWLSQLKTGDPVPCFIRGAPSFRLPPDPYVPCILVGPGTGIAPFRGFWQERLHDIESKGLQPAPMTLVFGCRCSQLDHLYRDEVQDAQERGVFGRVLTAFSREPDSPKTYVQDILRTELAAEVHRVLCLERGHMFVCGDVTMATSVLQTVQRILATEGDMELDEAGDVIGVLRDQQRYHEDIFGLTLRTQEVTSRIRTQDFSLQERHLRGAVPWAFDPPGPDTPGP
# What was measured:
# [1] = system: eNOS; test: Conversion of L-arginine to L-citrulline by purified eNOS; type: biochemical, bovine; settings: for Kcat (CaM, L-Citrulline): CaM activation of NOS activity
# Experimental: The conversion of L-arginine to L-citrulline was assayed as described previously by Bredt et al. (1990). Briefly, eNOS (0.25-2 μg) was incubated for 3-10 min at 23° C. in the following reaction mixture: 3 pmol of L-[3H]arginine (55 Ci/mmol), 10-300 μM arginine, 1 mM NADPH, 120-200 nM calmodulin, 2 mM CaCl2, and 30 μM BH4 in a final reaction volume of 50-100 μl. The reaction was terminated by the addition of 0.5 ml of 20 mM HEPES, pH 5.5, containing 2 mM EGTA and EDTA. The reaction mixture was placed over Dowex AG50WX8, and the flow-through was counted on a Packard 1500 liquid scintillation analyzer.
# [2] = system: eNOS; test: Hemoglobin capture assay of NO production by purified eNOS; type: biochemical, bovine; settings: for Kcat (substrate Arginine, Hemoglobin capture): rate of NO production vs L-arginine, optimal conditions
# Experimental: Assay for NOS Activity—NO production was measured by the hemoglobin capture assay as described (Kelm et al., 1988). Briefly, the reaction mixture contained eNOS (0.5-2.5 μg), oxyhemoglobin (8 μM), L-arginine (100 μM), BH4 (5 μM), CaCl2 (120 μM), calmodulin (120-200 nM), and NADPH (100 μM) in HEPES buffer (50 mM), pH 7.4. […] Under these conditions, free calcium was calculated using the WinMAXC program, version
# NOS activity was monitored for linearity over 2 min at 401 nm, and NO production was calculated based on the change of absorbance using the extinction coefficient of 60 mM^−1 cm^−1. All reactions were carried out at 23° C., and each data point represents 3-8 observations. The extinction coefficient of 0.0033 μM^−1 cm^−1 at 276 nm was used for determination of calmodulin concentration. […] When the inactivation of eNOS was determined by the addition of EGTA (200-800 μM) to the reaction mixture, chelator was added 1 min after initiation of the reaction by NADPH. Identical conditions were used when NADPH-cytochrome c reductase activity was examined. These reactions contained CaM (120 nM) and CaCl2 (200 μM) in a 0.5-ml volume with eNOS (0.5 μg).
# [3] = system: cytochrome c; test: NADPH-cytochrome c reductase activity of purified eNOS; type: biochemical; settings: for EC50: cytochrome c reduction; for Km: Km for NADPH
# Experimental: Assays for Reductase Activity—NADPH-cytochrome c reductase activity and 2,6-dichlorophenolindophenol (DCIP) reduction were measured as a change in absorbance at 550 nm as described previously by Martasek et al. (1999) and Masters et al. (1967) using an extinction coefficient of 0.021 μM^−1 cm^−1 for both cytochrome c and DCIP. Briefly, a reaction mixture (1 ml) contained either cytochrome c (90 μM); DCIP (36 μM), HEPES buffer (50 mM) at pH 7.6, NaCl (250 mM), NADPH (100 μM), calmodulin (120 nM), and CaCl2 (200 μM); or other substances as indicated. The reaction was monitored for 60 s (at 23° C.) after the addition of eNOS. When inactivation of reductase activity was determined by the addition of EGTA (200-800 μM), chelator was added 1 min after initiation of the reaction and monitored for an additional 1 min. The reaction contained HEPES buffer (50 mM) at pH 7.6, CaM (120 nM), and CaCl2 (200 μM) and was initiated with NADPH (100 μM). No NaCl was added in experiments that examined EGTA inactivation of eNOS to mimic the conditions used in the hemoglobin capture experiments. […] Determination of the calcium EC50 for eNOS was performed as described above for the hemoglobin capture assay.
# [4] = system: eNOS; test: NOS activity (3H-L-arginine to 3H-L-citrulline) in COS cell lysates; type: biochemical, bovine; settings: COS cells transfected with eNOS only, n=3
# From the text: NOS activity assays: The conversion of ^3H-L-arginine to ^3H-L-citrulline was used to determine NOS activity in COS cell or endothelial cell lysates as previously described by Garcia-Cardena et al. (1998).
molecule,measurement,setting,value
B1,"Kcat (CaM, L-Citrulline)",[1],0.717 ± 0.033 s⁻¹
same,"Kcat (CaM, L-Citrulline)",[1]; listed as S1179D eNOS,0.717 s⁻¹
same,EC50,"[1]; EC50 for CaM, NOS activity",7 nM
same,sensitivity of NO production to the addition of EGTA,"[2]; 0-600 μM EGTA, 200 μM calcium",less sensitive to the addition of EGTA
same,NO production after calcium chelation with EGTA,"[2]; 600 μM EGTA, 200 μM calcium",residual activity was still detected
same,EC50,"[2]; EC50 for free calcium, NO production, 250 nM CaM, read-out: EC50 (Ca2+, Hemoglobin capture, 100 mM KCl)",250 nM
same,calcium dependence of NO production after normalization for maximal activity,"[2]; FIG. 8C, p<0.05",slightly increased
same,Km,"[2]; Km for L-arginine, read-out: Km (substrate Arginine, Hemoglobin capture)",2.5 µM
same,Km,"[2]; Km for NADPH, in presence of CaM, read-out: Km (NADPH, Hemoglobin capture)",36 µM
same,"Kcat (NADPH, Hemoglobin capture)","[2]; NADPH dependence, in presence of CaM",0.883 ± 0.05 s⁻¹
same,"increase in the Km for NADPH, S1179D compared with wild type eNOS","[2]; NO production, presence of CaM",4 fold
same,"Kcat (Ca2+, Hemoglobin capture, 100 mM KCl)","[2]; calcium activation, 250 nM CaM",1.67 ± 0.05 s⁻¹
same,"maximal turnover rate, FIG. 8C",[2]; calcium-dependent NO production,100 min1
same,"maximal turnover rate, FIG. 8A",[2]; calmodulin-dependent hemoglobin capture,43 min⁻¹
same,"Kcat (substrate Arginine, Hemoglobin capture)",[2],1.4 ± 0.1 s⁻¹
same,"Kcat (substrate Arginine, Hemoglobin capture)",[2]; listed as S1179D eNOS,1.4 ± 0.1 s⁻¹
same,"kcat for CaM activation of cytochrome c reduction, S1179D compared with wild type",[3],about 2 fold
same,"Kcat (CaM, Cytochrome c)",[3]; CaM activation of cytochrome c reduction,19 s⁻¹ and 19 ± 1.25 s⁻¹
same,EC50,"[3]; EC50 for CaM, listed as S1179D eNOS, read-out: EC50 (CaM, Cytochrome c)",13 nM
same,EC50,"[3]; EC50 for CaM, read-out: EC50 (CaM, Cytochrome c)",21 nM
same,EC50,"[3]; EC50 for free calcium, read-out: EC50 (Ca2+, Cytochrome c, 100 mM KCl)",220 nM
same,cytochrome c reduction activity compared with wild type eNOS,[3]; FIG. 6B,significant increase in activity
same,Km,[3]; absence of CaM,2 µM
same,Km,[3]; presence of CaM,1.9 µM
same,"Kcat − CaM (NADPH, Cytochrome c)","[3]; NADPH dependence, absence of CaM",4.83 ± 0.15 s⁻¹
same,"Kcat − CaM (NADPH, Cytochrome c)","[3]; NADPH dependence, absence of CaM, listed as eNOS S1179D",4.83 s⁻¹
same,"Kcat + CaM (NADPH, Cytochrome c)","[3]; NADPH dependence, presence of CaM",14 s⁻¹ and 14 ± 0.983 s⁻¹
same,"basal cytochrome c reduction, S1179D compared with wild type eNOS",[3]; absence of CaM,4 fold
same,"cytochrome c reduction, first value of pair (with superoxide dismutase)",[3]; absence of CaM,278 ± 9 min⁻¹
same,"cytochrome c reduction, second value of pair (without superoxide dismutase)",[3]; absence of CaM,288 ± 7 min⁻¹
same,"Kcat (Ca2+, Cytochrome c, 100 mM KCl)",[3]; calcium activation,63.3 ± 0.9 s⁻¹
same,"maximal turnover rate, FIG. 8D",[3]; calcium-dependent cytochrome c reduction,3810 min⁻¹
same,"maximal turnover rate, FIG. 8B",[3]; calmodulin-dependent cytochrome c reduction,1400 min1
same,reductase activity after calcium chelation with EGTA,[3]; highest concentration of EGTA,residual reductase activity was found
same,cytochrome c reduction with superoxide dismutase,[3]; presence of CaM,1179 ± 43 min⁻¹
same,cytochrome c reduction without superoxide dismutase,[3]; presence of CaM,1518 ± 19 min⁻¹
same,relative decrease in cytochrome c activity in the presence of superoxide dismutase,[3]; presence of CaM,22%
same,CaM-stimulated cytochrome c reduction,"[3]; presence of CaM, n=3-5",1272 ± 55 min⁻¹
same,level of stimulation of cytochrome c reduction by CaM,[3]; with vs without CaM,3 fold
same,NOS activity in lysates,[4],131.8±36.7 pmol L-citrulline generated/mg protein
